Experiment: yeast display, Sf9 membrane polyspecificity reagent, FACS + sequencing; frameworks hold sequencing errors
Method in brief: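 Polyreactivity labels are assigned by the sorting gate from which each nanobody was recovered. The gates were low and high (top ~1%), set on anti-HA fluorescence for expression and streptavidin fluorescence for reagent binding. Before sorting, galactose-induced (36–48 hours) yeast display cells were stained for 1 hour at 4 °C with 10% biotinylated, detergent-solubilized Sf9 membrane reagent.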

Sequence	polyreactivity (PSR sort gate)
QVQLVESGGGLVQAGGSLGLSCAASGLTFTHYTMGWYRQAPGKERELVAGISQTGGSTYYADSVKGRFTISRDNAKNTVYLQMNSLKPEDTAVYYCSRVFPRPRTGYYYWGQGTQVTVSS	high polyreactivity
QVQLVESGGGLVQAGGSLGLSCAASGNMFGRYAMGWYRQAPGKEREYVATITYSGGSTYYADSVKGPFTISRDNAKNTVYLQMNSLKQEDTAVYYCAARVGRPTLVAAKYDYWGQGTQVTVSS	high polyreactivity
QVQLVESGGGLVQAGGSLGLSCAASGRTFFDYAMGWYRQAPGKERELVAAINWSGGRTYYADSVKGRFSISRDNAKNTVYLQMNSLKPEDTAVYDCNVYTRGRYEYWGQGTQVTVSS	low polyreactivity
QVQLVESGGGLVQAGGSLGLSCAASGRTFGPYAMGWYRQAPGKERELVAAISASGASTSYADSVKGRFTIARDNAKNTVYLQMNSLKPEDTAVYYCARSYYHRPFGYWGQGTQVTVSS	low polyreactivity
QVQLVESGGGLVQAGGSLGLSCAASGRTFGRYVMGWYRLAPGTEWELVAAIRSSGGGTYYADSVKGRFTISRDNAKNTVYLQMNSLKPEETAVYYCAKEYSIGIRWEYDYWGQGTQVTVSS	low polyreactivity
QVQLVESGGGLVQAGGSLGLSCAASGSTLYGNAMGWYRQAPGKERELVAAINTGGSTNYADSVKGRFTISRDNAKNTVYVQMNSLKPEDTAVYYCAADYEWDATHDYWGQGTQVTVSS	low polyreactivity
QVQLVESGGGLVQAGGSLGLSCAAYGSTFRYYAMGWYRQAPGKERELVAAISSAGNTYYADSVKGRFTISRDNAKNTVYLQMNSLKPEDTAVYYCAAKYSYYTYAGDGGLFSCSYGYWGQGTQVTVSS	low polyreactivity
QVQLVESGGGLVQAGGSLLISCAASGRIFYYNTMGWSRQEPGKESELVAAITTNGGSTYYADSVKGRFTISRDNAKITVYLQMNSLNPEDTAVYYCNRDRYPYYSAYNYWGQGTQVTVSS	low polyreactivity
QVQLVESGGGLVQAGGSLLLICAASGFIFVPYAMGWYRQAPGKEREFVATITWRGDSTYYADSVKGRFTISRDNAKNTVYLQMNSLKPEDTAVYYCAVYPIRLWAYDYWGQGTQVTVSS	low polyreactivity
QVQLVESGGGLVQAGGSLLLICAASGSILGTNAMGWYRQAPGKERELVAAISSSGRTSYADSVKGRFTISRDNAKNTVSLQMNSLKPEDTAVYYCNASNYIVLIIDPDAAPWLYDYWGQGTQVTVSS	low polyreactivity
QVQLVESGGGLVQAGGSLLLICSASGSTFVRHAMGWYRHAPGKESELDAAISTRGGSTSYADSVKGRFTISRDNSKNSVYLQMKSLKQEDTAVYYCAKVLAYSQGIRHGYWGQGTQVTVSS	low polyreactivity
QVQLVESGGGLVQAGGSLLLRCAASGSIFPWNTMGWNRQAPGKERELVARISTSGASTYYADSVKGRFTISRDNAKNTVYLQMNSRKPEDTAVYYGAARDWSHRPRGYDYWGQGTQVTVSS	high polyreactivity
QVQLVESGGGLVQAGGSLLLSCAASGFTFRYYAMGWYRQAPGKERELVAAITGSGTRTYYADSVKGRFTISRDYGKNTVYLQMNSLKPEDPAVYYCNAPRQPRWFDYWGQGTQVTVSS	high polyreactivity
QVQLVESGGGLVQAGGSLLLSCAASGFTLEKNAMGWYRTAPGKERELVADISSTDSTNYADSVKGRFTISRDNAKITVYFQMNSVKPEDTAVYYCGRYDGPGTEEFDYWGQGSQVTVSS	low polyreactivity
QVQLVESGGGLVQAGGSLLLSCAASGGTFGGYTMGWYRQAPVKERELVAAITRSGSSTFYADSVKGRFTISRDNAKNTVYLQMNSLKPEDTAVYYCAALWHAVFYADYDYWGQGTQVSVSS	high polyreactivity
QVQLVESGGGLVQAGGSLLLSCAASGIIFRYNTMGLYRQAPGKERELVAAIRTTGGSTNYADSVKGRFTISRDNAKNTVYLQMNSLKPEDTAVYYCNKGVSSRAFDYWGQGTQVTVSS	low polyreactivity
QVQLVESGGGLVQAGGSLLLSCAASGITSWYYVMGWYRQAPGKERELVAAITRSGGSTYYADSVKGRFTISRDTAKNTVFLQMNSLKPEDTAVYYCAARSYPQRWTTYPYGYWGQGTQVTVSS	high polyreactivity
QVQLVESGGGLVQAGGSLLLSCAASGRIFRYNAMGWYRQAPGKERELVAAISWTVGRTYYADSVKGRFTISRDNAMNTVYLQMNSLKPEDTAVYYCATYFRVWYRSYDYWGQGTQVTVSS	high polyreactivity
QVQLVESGGGLVQAGGSLLLSCAASGRTFATNAMGWNRQAPGKERELVADISGGGSTYYADSVKGRFTISRDNAKNTVYLQMNSMKPEDTAVYYCAARDYHWFQWYDYWGQGTQVTVSS	low polyreactivity
QVQLVESGGGLVQAGGSLLLSCAASGRTFYYNDMGWYRQAPGKERELVASISYGGSTYYADSVKGRFTISRDNAKNTVYLQMNSLKPEDTAVYYCATVDWRWRYARRPRYDYWGQGTQVTVSS	high polyreactivity
QVQLVESGGGLVQAGGSLLLSCAASGSIFFPNAMGWYRQAPGKERELVAAINWSGDSTYYADSVKGRFTISRDNAKNTVYLQMNSLKPVDTAVYSCNATYPWFDYDYWGQGTQVTVSS	low polyreactivity
QVQLVESGGGLVQAGGSLLLSCAASGSIFQQYAMGGSRQAPGKERDLVAAISWGDGSTYYADSVKGRFTISRDNAKNTVYLQMNSLKPEDTAVYYCNAYASAPLWSLEDDYWGKGTQVTVSS	low polyreactivity

Sequence	polyreactivity (PSR sort gate)
QVQLVESGGGLVQAGGSLLLSCAASGSLFYRYAMGWYRQAPGKERELVAAISWGGGRTYYADSVKGRFTISRDNAKNTVYLQMNRLKPEDTAVYSCNREKYVRWIREDYDYWGQGTQVTVSS	high polyreactivity
QVQLVESGGGLVQAGGSLLLSCAASGSTLGRYAMGWYRQAPGKERELVASITWSDDSTYYADSVKGRFTISRDNAKNTVYLQMNSLKPEDTAVYYCAAAGNLYTYRFYYWGQGTQVTVSS	low polyreactivity
QVQLVESGGGLVQAGGSLLLSCAASGSTYKYAMGWYRQAPGKERELVAVISSGGSTDDADSVKGRFTISRDNAKNTVYLQMNSLKPEDTAVYYCAADSGFVSIGSYYWGLGTQVTVSS	low polyreactivity
QVQLVESGGGLVQAGGSLLLSCAASGYTFKSYVMGWYRQAPGKERELVAAITSIGGSTYYADSVKGRFTISRDNAKNNVYLQMNSLKPEDTALYYCAKYPGISGYNYWGQGTQVTVSS	high polyreactivity
QVQLVESGGGLVQAGGSLLLSCAATGITFVPNAMGWYRQAPGKERELVDAISTRGGSTYYADSVKGRFTISRDNAKNTVYLQMNSLKPEDTAVYYCNALITGRWFDYWGQGTQVTVSS	high polyreactivity
QVQLVESGGGLVQAGGSLLLSSADSGSTFNYNAMGWYRQSHGKERELVAVINSGGSTYYADSVKGRFTISRDNAKNTVYLQMNSLKPEDTAVYYCAAATYRQQWHYYWGQGTQGTVSS	high polyreactivity
QVQLVESGGGLVQAGGSLPLSCAASGATFTFYTMRSYRQAPGKERELVATISWRGGNTYYADSVKGRFTISRDNAKNTVYLQMNSLKPEDTAVYYCNAAPYRRGYGFREYDYWGQGTQVTVSS	high polyreactivity
QVQLVESGGGLVQAGGSLPLSCAASGFTFDKYAMGWYRQAPGKERELVAAISNSGGRTYYADSVKGRFTISRDNAKKTVYLQMNSLKPEDTAVYYCAAKFRYQYVRVAREYYYWGQGTQVTVSS	high polyreactivity
QVQLVESGGGLVQAGGSLPLSCAASGIIFSYNAKGWDRQAPGKERELDAAIRENGGSTYYADSVKGRFTISRDNAKNTVYLQMNSLKPEDTAGYYCAVATSYYAGYEYDYWGQGTQVTVSS	low polyreactivity
QVQLVESGGGLVQAGGSLPLSCAASGRIYDSYAKGWYIQAPGKERELVAAISFGGDTYYADSVKGRFTISRDNAKNTVYLQMNSLKPEDTAVYYCAKDNPAALFDSWGQGTQVTVSS	low polyreactivity
QVQLVESGGGLVQAGGSLPLSCAASGRTFDSYTMGWYRQAPGKERELVAAIRSSGGRTYADSVKGRFTISRDNAKNTVYLQMNSLKPEDTAVYYCAAARSYWAKYYYWGQGTQVTVSS	high polyreactivity
QVQLVESGGGLVQAGGSLPLSCAASGRTFPFNALGWYRQAPGKEREFVAAISVGGGSTYADSVKGRFTISRDNAKNTFYLQMNSLKPEDTAVYYCAAAYTKLYYYWGQGTQVTVSS	low polyreactivity
QVQLVESGGGLVQAGGSLPLSCAASGSIFTYYAMGSYRQAPGKEREFVAAISRRGGSTYYADSVKGRFTISRDNAKNTVYLQMNSLKPEDTAVYYCNARDTGSSLYYWGQGTQVTVSS	high polyreactivity
QVQLVESGGGLVQAGGSLPLSCAASGSIFWRNAMGWYRQAPGKEREFVATITWSGDSTYYADSVKGRFTISRDNAKNTVYLQMNSLKPEDTAVYYYAAAYSNWHPGLDYWGQGTPVTVSS	low polyreactivity
QVQLVESGGGLVQAGGSLPLSCAASGSTFNKYTMGWSRQPPGKERELVAAITSGDSTYYADSVKGRFTISRDNAKNTVYLQMNSLKPDDTAVYYCAKSLRAYRHVIYGKPFYSWGQGTQVTVSS	low polyreactivity
QVQLVESGGGLVQAGGSLPLSCAASGYTFQRYAMGWYRQAPGKERELVAAITGAGGSTYYADSVKGRFTISRDNAKNTVYLQMNSLKPEDTAVYYCAARQYRRVIKHGYNYWGQGTQVTVSS	high polyreactivity
QVQLVESGGGLVQAGGSLRFSCAACGMTIWYYGMGSYRQAPGKERELLAAISKTGGRTYDADSVKGRFTISRDNAKNTVYLQMNRLKPEDTAVYNCNARYLLVSRYWENDYWGQATQVTVSS	low polyreactivity
QVQLVESGGGLVQAGGSLRFSCAASGFIFSFYAMGWYRQAPGKERELVAAISSSGSTNYADSVKGRFTISRDNAKNTVYLQMNSLKPEDTAVYYCAARWHRSRAGYYYWGQGTQVTVSS	high polyreactivity
QVQLVESGGGLVQAGGSLRFSCAASGFTFTVYAMGWYRQAPGKGRELVAAISWNGGSTYYADSVKGRFTISRDNATNTDYLQRNSLKPEDTAVYYCNKYYYRGVRYYRDHDYWGQGTQVTVSS	high polyreactivity
QVQLVESGGGLVQAGGSLRFSCAASGGTFSGYAMGWYRQAPGKERELVAAITSGGGTTYADSVKGRFTISRDNAKNTVYLQMNSLKPEDTAVYYCAKEGHVVIFYIGQYELDYWGQGTQVTVSS	low polyreactivity
QVQLVESGGGLVQAGGSLRFSCAASGGTFWYYAMGWYRQAPGKERELDASISRGGSTNYADSVKGRFTISRDNAKNTVYLQMNSLKPEDTAVYYCIAGLRVGPRRYVDYEYDYWGQGTQVTVSS	low polyreactivity

Source: the nanobody polyreactivity screen of Harvey et al. (2022)
